This note sets out measurements from patent publication US20220048962.

The test system of the data set is MBP-CIRTS-1 (ORF5-TBP6.7-SMG6 Pin nuclease fusion) (synthetic fusion (Grapevine virus A ORF5; Homo sapiens U1A-derived TBP6.7; Homo sapiens SMG6)). Kind of data set: FP filter. Particulars: apparent; text states ~50-fold weaker than on-target.

With “non-targeting TAR-hairpin gRNA ; model RNA substrate (R1)”, the Kd turned out to be 0.5 µM.
